Test results reported in patent US20100075434A1 (NATIONAL UNIVERSITY CORPORATION TOKYO MEDICAL AND DENTAL …, published 2010).
Changes are numbered by the printed parent chain. Square brackets hold non-standard residues; d marks the D form. * marks the point of attachment. NBD = O=[N+]([O-])c1ccc(*)c2nonc12; Dap = NC[C@H](N)C(=O)O; ClAc = O=C(CCl)*

Assays:
[1] = biological target: T1, tag polypeptide of Example 1, structural formula (8) (not fully specified); assay: fluorescence titration, 0.5 µM probe in HEPES buffer
T1 construct: Chemically synthesized from two fragments (Chain A with the linker cysteine, Chain B) joined by native chemical ligation; also called A2
T1 peptide: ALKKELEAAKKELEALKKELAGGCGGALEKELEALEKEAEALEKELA
Description: (§1) In the fluorescence titration, the rate of change of the fluorescence intensity at 505 nm was plotted against the concentration of the tag peptide and the dissociation constant was calculated from a theoretical formula assuming 1 to 1 binding of the tag peptide to the probe peptide.
(§2) In FIG. 6, the horizontal axis represents the titer of the tag against the probe whereas the vertical axis represents the relative increase in fluorescence intensity when the fluorescence intensity detected for the probe alone at fluorescence wavelength of 505 nm is estimated as 1. […] In Example 1, the fluorescence intensity at 505 nm in the presence of 1 equivalent of tag peptide was 18 times as high as that measured in the absence of the tag peptide.

[2] = biological target: T2, tag polypeptide of Example 3, structural formula (11) (not fully specified); assay: as above
T2 construct: also called G2
T2 peptide: T1 peptide with A9G, A39G
Description: as §1, §2

[3] = biological target: T3, tag polypeptide of Example 2, structural formula (10); assay: as above
T3 construct: also called L2
T3 peptide: T1 peptide with A9L, A39L
Description: as §1, §2

[4] = biological target: T1, tag polypeptide of Example 1, …; assay: fluorescence titration, tag added to 0.5 µM probe in HEPES buffer, 505 nm, 1:1 model
Description: as §1, §2

[5] = biological target: T2, tag polypeptide of Example 3, …; assay: as above
Description: as §1, §2

[6] = biological target: T3, tag polypeptide of Example 2, …; assay: as above
Description: as §1, §2

[7] = biological target: T4, fused protein of DsRed and PKC having at its N terminal end a tag polypeptide of sequence (A) (Homo sapiens (Human), UniProt Q05655 1-676); assay: fluorescence microscopy of permeabilized CHO.K1 cells, 1 µM probe, NBD against DsRed localization with and without PDBu
T4 construct: Expressed in the cytoplasm of CHO.K1 cells, which were permeabilized with saponin before the probe was added; also called tag-fused PKC
T4 sequence (Q05655 other isoform, or with tags, fused parts or gaps limits assumed): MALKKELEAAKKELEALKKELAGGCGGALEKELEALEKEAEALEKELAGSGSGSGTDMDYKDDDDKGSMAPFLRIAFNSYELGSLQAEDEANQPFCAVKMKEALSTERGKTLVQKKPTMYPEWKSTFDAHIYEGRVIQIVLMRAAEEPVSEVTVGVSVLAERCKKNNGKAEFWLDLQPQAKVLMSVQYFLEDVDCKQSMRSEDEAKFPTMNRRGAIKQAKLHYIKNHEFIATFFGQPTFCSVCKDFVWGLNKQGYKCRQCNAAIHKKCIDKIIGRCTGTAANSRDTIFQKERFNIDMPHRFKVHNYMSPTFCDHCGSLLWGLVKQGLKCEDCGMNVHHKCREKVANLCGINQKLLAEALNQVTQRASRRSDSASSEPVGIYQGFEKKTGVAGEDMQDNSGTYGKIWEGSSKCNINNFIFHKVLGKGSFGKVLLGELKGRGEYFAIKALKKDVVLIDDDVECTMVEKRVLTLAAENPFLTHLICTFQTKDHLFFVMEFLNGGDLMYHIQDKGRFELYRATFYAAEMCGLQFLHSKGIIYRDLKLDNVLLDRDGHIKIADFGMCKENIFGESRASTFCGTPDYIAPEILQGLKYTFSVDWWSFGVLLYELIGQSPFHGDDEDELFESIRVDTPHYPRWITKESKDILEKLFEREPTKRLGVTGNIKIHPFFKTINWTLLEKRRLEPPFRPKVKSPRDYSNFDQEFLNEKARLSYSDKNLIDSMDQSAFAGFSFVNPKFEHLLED
Description: Subsequently, a permeabilization buffer (20 mM Hepes, pH 7.4, 140 mM KCl, 50 μg/mL saponin, 5 mM oxalic acid) was added to the thus-prepared CHO.K1 cells. After left to stand on ice for 10 min, the cells were washed with PBS, followed by incubating on ice for 20 min in PBS. Thereafter, the cells were incubated in PBS at room temperature for 2 min and then 37° C. for 2 min. Further, the cells were incubated at 37° C. for 30 min in a conditioned medium (Ham's F12) to which a probe indicated by sequence (B) (probe concentration: 1 μM (Final conc.)) had been added.
Separately, before treated with the permeabilization buffer, the above-prepared CHO.K1 cells were treated for 10 min with 10 mM DMSO containing PDBu (phorbol 12,13 dibutyrate; final concentration: 10 μM). The cells were observed by the fluorescence microscope similar to the above.
The following was used as a control; a group which was not treated with PDBu, and CHO.K1 cells to which only DIC was introduced (note that DIC is a vector used for introducing into cells the above-mentioned fused protein of DsRed and PKC having at its N terminal end a tag polypeptide indicated by sequence (A). The cells were observed as mentioned above at predetermined wavelength (515 nm to 560 nm). The results are shown in FIG. 11.

B1: probe polypeptide of Example 1, structural formula (9) (peptide)
peptide: Ac-ALKKKLEALKKK[Dap](NBD)EALKKKLA-NH2
SMILES: CC(=O)N[C@@H](C)C(=O)N[C@@H](CC(C)C)C(=O)N[C@@H](CCCCN)C(=O)N[C@@H](CCCCN)C(=O)N[C@@H](CCCCN)C(=O)N[C@@H](CC(C)C)C(=O)N[C@@H](CCC(=O)O)C(=O)N[C@@H](C)C(=O)N[C@@H](CC(C)C)C(=O)N[C@@H](CCCCN)C(=O)N[C@@H](CCCCN)C(=O)N[C@@H](CCCCN)C(=O)N[C@@H](CNc1ccc([N+](=O)[O-])c2nonc12)C(=O)N[C@@H](CCC(=O)O)C(=O)N[C@@H](C)C(=O)N[C@@H](CC(C)C)C(=O)N[C@@H](CCCCN)C(=O)N[C@@H](CCCCN)C(=O)N[C@@H](CCCCN)C(=O)N[C@@H](CC(C)C)C(=O)N[C@@H](C)C(N)=O
notes: the text says (9); also called L-NBD; probe peptide
- equivalents of tag peptide at which the change in fluorescence saturates [1]: 1 equivalent
- fold increase of fluorescence intensity at 505 nm with 1 equivalent of tag peptide against probe alone [1]: 18 times
- equivalents of tag peptide at which the change in fluorescence saturates [2]: 1 equivalent
- equivalents of tag peptide at which the change in fluorescence saturates [3]: 1 equivalent
- Kd [4]: 17.5 nM
- Kd [5]: 755 nM
- Kd [6]: 24.3 nM

B2: probe peptide for crosslink reaction, structural formula (12) (peptide)
peptide: ClAc-GALKKKLEALKKK[Dap](NBD)EALKKKLA-NH2
notes: also called ClAc-G probe
- binding result [7]: binds
